How the values were obtained:
Experiment in all cases: FACS
[1] = molecular target: yeast-displayed mutant sBCMA V2 (V3 without N53D) (human, UniProt Q02223 1-54, S16G | H19Y | T36A)
Clone V5 = molecular target: Clone V5
Clone V8 = molecular target: Clone V8

B1: human APRIL (a proliferation-inducing ligand) (ligand)
chain: AVLTQKQKKQHSVLHLVPINATSKDDSDVTEVMWQPALRRGRGLQAQGYGVRIQDAGVYLLYSQVLFQDVTFTMGQVVSREGQGRQETLFRCIRSMPSHPDRAYNSCYSAGVFHLHQGDILSVIIPRARAKLNLSPHGTFLGFVKL
- Kd [1]: 0.018 nM
- Kd (Clone V5): 0.007 nM
- Kd (Clone V8): 0.054 nM

Source: paper PMC9428257 (2022)
